According to publication PMC3079584, “A Cytoplasmic Complex Mediates Specific mRNA Recognition and Localization in Yeast”:

Biological target: T1, She3p (Saccharomyces cerevisiae, UniProt P38272 1-425)
T1 sequence: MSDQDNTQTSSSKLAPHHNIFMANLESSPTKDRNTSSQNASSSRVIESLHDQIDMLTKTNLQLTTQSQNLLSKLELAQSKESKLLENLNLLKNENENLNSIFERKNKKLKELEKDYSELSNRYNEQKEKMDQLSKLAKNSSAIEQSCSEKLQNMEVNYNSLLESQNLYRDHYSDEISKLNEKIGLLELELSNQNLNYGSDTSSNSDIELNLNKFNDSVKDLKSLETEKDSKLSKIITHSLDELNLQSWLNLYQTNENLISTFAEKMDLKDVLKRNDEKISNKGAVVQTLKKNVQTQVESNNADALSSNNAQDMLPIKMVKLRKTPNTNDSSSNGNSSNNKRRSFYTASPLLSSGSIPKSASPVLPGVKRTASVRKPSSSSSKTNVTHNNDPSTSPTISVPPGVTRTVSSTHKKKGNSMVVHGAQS
Assay: EMSA; minimal She3p concentration for detection; EMSA: 20 mM HEPES pH 7.8, 200 mM NaCl, 2 mM MgCl2, 2 mM DTT, 4% glycerol, 30 or 100 ug/ml yeast tRNA, 5 nM RNA, 20 C; filter binding: 20 mM HEPES pH 7.4-7.5 (7.9 with She3p), 150 mM NaCl, 2 mM MgCl2, 2 mM DTT, 30 ug/ml yeast tRNA, 0.5 nM RNA; pull-down: HNMD buffer, 4 C
Details: protein: recombinant; tags: C-terminal His6; label: 32P; stem-loop

B1: ASH1 E3-118 (structured_RNA)
RNA: GAGACAGUAGAGAAUUGAUACAUGGAUAACUGAAUCUCUUUCAACUAAUAAGAGACAUUAUCACGAAACAAUUGUACAUUUCUCUCCUUGUCUGUGCUAAAUAAACUACAAAUAAAAA
- binding result: binds
